Results on four molecules are retold here after publication PMC3299411 (Molecular Cell, 2011).

Test in all cases: cross-linking
Series [1] addresses H3 (Drosophila (endogenous in S2 cells)) (UniProt P02299).
In series [2] the target is T1, endogenous CID (Drosophila (endogenous in S2 cells)), Q9V6Q2.
T1 chain: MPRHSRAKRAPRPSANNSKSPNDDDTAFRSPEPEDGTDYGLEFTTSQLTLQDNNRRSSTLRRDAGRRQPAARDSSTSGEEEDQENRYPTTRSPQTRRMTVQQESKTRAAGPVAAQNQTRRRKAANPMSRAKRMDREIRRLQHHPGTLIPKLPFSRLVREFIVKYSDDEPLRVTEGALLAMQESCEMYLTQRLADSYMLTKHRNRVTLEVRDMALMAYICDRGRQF
Conditions: remark: other sources report otherwise.

In series [3] the target is T2, FLAG-CID (N-terminally FLAG-tagged CID, wild type) (Drosophila), Q9V6Q2.
T2 chain: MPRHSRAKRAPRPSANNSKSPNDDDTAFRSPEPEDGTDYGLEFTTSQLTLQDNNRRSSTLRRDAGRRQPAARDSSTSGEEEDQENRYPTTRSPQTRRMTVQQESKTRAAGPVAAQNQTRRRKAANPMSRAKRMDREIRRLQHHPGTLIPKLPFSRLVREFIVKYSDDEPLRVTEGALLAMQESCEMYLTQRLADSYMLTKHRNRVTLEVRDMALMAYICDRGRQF
To be noted: remark: other sources report otherwise.

Series [4] deals with the molecule itself.

“H3 (from UniProt P02299 1-136) (natural protein)” displayed a stoichiometry N in series [1] of 2.

B1: endogenous CID, Q9V6Q2 1-225 (natural protein)
chain: MPRHSRAKRAPRPSANNSKSPNDDDTAFRSPEPEDGTDYGLEFTTSQLTLQDNNRRSSTLRRDAGRRQPAARDSSTSGEEEDQENRYPTTRSPQTRRMTVQQESKTRAAGPVAAQNQTRRRKAANPMSRAKRMDREIRRLQHHPGTLIPKLPFSRLVREFIVKYSDDEPLRVTEGALLAMQESCEMYLTQRLADSYMLTKHRNRVTLEVRDMALMAYICDRGRQF
On to B1, for which the stoichiometry N in series [2] was found to be 2.

B2: FLAG-CID (N-terminally FLAG-tagged CID, wild type), Q9V6Q2 1-225 (natural protein)
chain: MPRHSRAKRAPRPSANNSKSPNDDDTAFRSPEPEDGTDYGLEFTTSQLTLQDNNRRSSTLRRDAGRRQPAARDSSTSGEEEDQENRYPTTRSPQTRRMTVQQESKTRAAGPVAAQNQTRRRKAANPMSRAKRMDREIRRLQHHPGTLIPKLPFSRLVREFIVKYSDDEPLRVTEGALLAMQESCEMYLTQRLADSYMLTKHRNRVTLEVRDMALMAYICDRGRQF
Take B2: in series [3], the ratio dimer:monomer after crosslinking is above 55 and the stoichiometry N stood at 2.

B3: FLAG-CID^D211A (natural protein, Drosophila, UniProt Q9V6Q2 1-225, looked up)
chain: MPRHSRAKRAPRPSANNSKSPNDDDTAFRSPEPEDGTDYGLEFTTSQLTLQDNNRRSSTLRRDAGRRQPAARDSSTSGEEEDQENRYPTTRSPQTRRMTVQQESKTRAAGPVAAQNQTRRRKAANPMSRAKRMDREIRRLQHHPGTLIPKLPFSRLVREFIVKYSDDEPLRVTEGALLAMQESCEMYLTQRLADSYMLTKHRNRVTLEVRAMALMAYICDRGRQF
On to B3, for which the “ratio dimer:monomer after crosslinking” value in series [4] is below 3.
